The experiment addresses CENP-A (endogenous, soluble pre-assembly fraction) (human (endogenous in SW480)) (UniProt P49450). The experiment is described as follows: co-IP; CENP-A IP (ACA serum) or mock IP from the soluble fraction (PBS, 0.5% NP-40) of SW480 cells treated 72 hours with control or HJURP siRNA; Western blot for the chaperones.
Chain of UniProt P49450 (P49450 whole entry): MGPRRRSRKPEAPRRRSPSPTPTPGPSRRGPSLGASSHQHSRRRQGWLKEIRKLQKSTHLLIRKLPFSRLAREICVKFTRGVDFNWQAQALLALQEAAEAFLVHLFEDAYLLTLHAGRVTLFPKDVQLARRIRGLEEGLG

Substance “HIRA (endogenous) (from UniProt P54198 1-1017) (natural protein)” gave a fold increase in the amount bound to CENP-A after HJURP knockdown against control siRNA of 2.4 fold.
